# Results from patent publication US20250270343A1 (Alector, published 2025).
# T1: soluble cynomolgus GPNMB (recombinant extracellular domain) (cynomolgus, UniProt Q14956 23-499 (human entry), limits assumed)
# T1 chain: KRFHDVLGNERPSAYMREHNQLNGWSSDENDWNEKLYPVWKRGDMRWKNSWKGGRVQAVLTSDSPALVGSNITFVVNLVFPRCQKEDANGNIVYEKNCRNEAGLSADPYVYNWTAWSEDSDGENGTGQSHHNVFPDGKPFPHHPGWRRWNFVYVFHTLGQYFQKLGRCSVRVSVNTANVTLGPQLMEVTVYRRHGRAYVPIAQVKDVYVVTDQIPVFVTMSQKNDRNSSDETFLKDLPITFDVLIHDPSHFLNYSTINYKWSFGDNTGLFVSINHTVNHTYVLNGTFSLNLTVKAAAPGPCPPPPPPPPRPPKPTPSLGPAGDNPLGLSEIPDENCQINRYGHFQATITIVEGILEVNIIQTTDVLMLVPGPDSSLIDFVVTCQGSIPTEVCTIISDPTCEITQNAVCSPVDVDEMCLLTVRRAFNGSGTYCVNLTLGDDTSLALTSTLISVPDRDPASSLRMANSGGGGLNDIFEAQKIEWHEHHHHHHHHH
# T2: soluble human GPNMB (recombinant extracellular domain) (human, UniProt Q14956 23-498)
# T2 construct: also called huGPNMB; recombinant human GPNMB extracellular domain; not shown: C-terminal polyhistidine or Avi-His tag
# T2 sequence: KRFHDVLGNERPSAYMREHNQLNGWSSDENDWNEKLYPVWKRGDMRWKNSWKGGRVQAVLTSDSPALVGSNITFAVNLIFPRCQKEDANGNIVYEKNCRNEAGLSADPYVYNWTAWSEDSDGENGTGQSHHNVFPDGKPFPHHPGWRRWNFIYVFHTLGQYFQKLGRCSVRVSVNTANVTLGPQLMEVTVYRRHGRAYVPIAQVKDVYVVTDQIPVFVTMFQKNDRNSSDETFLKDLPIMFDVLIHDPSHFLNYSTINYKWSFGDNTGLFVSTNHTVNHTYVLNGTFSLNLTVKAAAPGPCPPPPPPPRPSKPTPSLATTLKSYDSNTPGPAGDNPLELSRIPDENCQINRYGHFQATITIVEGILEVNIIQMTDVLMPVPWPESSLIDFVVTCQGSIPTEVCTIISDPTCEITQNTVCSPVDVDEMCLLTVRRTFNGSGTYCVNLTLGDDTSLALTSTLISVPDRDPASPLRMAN
# T3: soluble mouse GPNMB (recombinant extracellular domain) (mouse, UniProt Q99P91 23-502)
# T3 construct: also called moGPNMB; not shown: C-terminal polyhistidine or Avi-His tag
# T3 sequence: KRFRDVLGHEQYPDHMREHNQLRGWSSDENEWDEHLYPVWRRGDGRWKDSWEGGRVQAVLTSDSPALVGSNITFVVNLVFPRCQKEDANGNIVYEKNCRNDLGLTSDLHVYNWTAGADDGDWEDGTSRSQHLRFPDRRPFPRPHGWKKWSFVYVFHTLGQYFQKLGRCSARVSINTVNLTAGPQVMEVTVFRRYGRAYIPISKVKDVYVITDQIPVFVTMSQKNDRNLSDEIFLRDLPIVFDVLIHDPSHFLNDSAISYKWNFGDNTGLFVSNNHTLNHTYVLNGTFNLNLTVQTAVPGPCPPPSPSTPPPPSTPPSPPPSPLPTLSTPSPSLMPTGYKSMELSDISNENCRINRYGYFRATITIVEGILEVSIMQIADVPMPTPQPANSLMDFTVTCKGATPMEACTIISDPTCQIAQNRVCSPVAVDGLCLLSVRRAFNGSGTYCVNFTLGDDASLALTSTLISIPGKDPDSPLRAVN
# T4: soluble mouse GPNMB-Fc polypeptide (Fc of human IgG1 or mouse IgG2A, not specified for the assay) (mouse, UniProt Q99P91 23-502)
# T4 construct: extracellular domain; also called moGPNMB-Fc; mGPNMB; not shown: Fc region of human IgG1 or mouse IgG2A; in the Fab2 assay detected with anti-human IgG1 secondary antibody
# T4 sequence (looked up): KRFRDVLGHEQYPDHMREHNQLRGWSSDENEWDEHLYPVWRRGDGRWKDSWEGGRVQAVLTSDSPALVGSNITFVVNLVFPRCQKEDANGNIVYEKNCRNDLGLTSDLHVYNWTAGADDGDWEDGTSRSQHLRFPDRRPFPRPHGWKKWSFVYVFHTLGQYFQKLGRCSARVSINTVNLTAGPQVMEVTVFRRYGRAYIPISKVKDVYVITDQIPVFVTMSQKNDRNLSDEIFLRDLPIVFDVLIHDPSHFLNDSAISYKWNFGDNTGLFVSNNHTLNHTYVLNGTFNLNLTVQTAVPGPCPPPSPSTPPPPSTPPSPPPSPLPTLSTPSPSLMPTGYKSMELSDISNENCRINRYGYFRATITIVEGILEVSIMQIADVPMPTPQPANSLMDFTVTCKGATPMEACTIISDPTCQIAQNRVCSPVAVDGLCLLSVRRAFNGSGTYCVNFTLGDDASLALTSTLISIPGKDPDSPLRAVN
# T5: soluble human GPNMB-Fc polypeptide (human, UniProt Q14956 23-498, limits assumed)
# T5 construct: also called huGPNMB-Fc; not shown: Fc domain
# T5 sequence (looked up): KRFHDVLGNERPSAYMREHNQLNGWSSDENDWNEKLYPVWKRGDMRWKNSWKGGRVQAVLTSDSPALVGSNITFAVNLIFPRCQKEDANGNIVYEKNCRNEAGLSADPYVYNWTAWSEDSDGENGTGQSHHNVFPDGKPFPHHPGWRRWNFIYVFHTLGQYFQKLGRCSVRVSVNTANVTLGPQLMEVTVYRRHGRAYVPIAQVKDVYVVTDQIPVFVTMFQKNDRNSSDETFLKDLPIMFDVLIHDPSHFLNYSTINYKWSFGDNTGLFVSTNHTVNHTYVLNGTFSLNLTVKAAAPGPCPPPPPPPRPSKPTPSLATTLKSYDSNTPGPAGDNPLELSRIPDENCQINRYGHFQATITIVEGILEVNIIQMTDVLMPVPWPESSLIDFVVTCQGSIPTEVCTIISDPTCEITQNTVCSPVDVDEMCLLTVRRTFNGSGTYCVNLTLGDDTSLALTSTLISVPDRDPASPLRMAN
# Key:
# [1] = biological target: T1, soluble cynomolgus GPNMB (recombinant …); assay: SPR Carterra, Ab amine-coupled
# Experimental: (§1) Additionally, one of the anti-GPNMB antibodies of the present disclosure was evaluated using a Carterra LSA instrument (Carterra, Salt Lake City, UT). Briefly, the anti-GPNMB antibody was immobilized in duplicate spots onto an HC30M sensor chip (Carterra) by amine coupling according to the instrument manufacturer's recommended protocol. After priming with running buffer (see above) the immobilized antibody was tested for its ability to bind to recombinant human, cynomolgus, and mouse GPNMB. Analytes were diluted to 600 nM in running buffer, then further diluted 3-fold serially to 200 nM, 67 nM, 22.2 nM, 7.4 nM, and 2.5 nM. Analyte at each concentration was injected for five minutes over the entire chip using the single channel flow cell. Dissociation was measured for 5 min, followed by regeneration of the chip with two 30-second injections of 10 mM glycine, pH 2.0. The data were analyzed using the NextGenKIT high-throughput kinetics analysis software from Carterra.
# [2] = biological target: T2, soluble human GPNMB (recombinant …); assay: SPR Carterra, Ab amine-coupled
# Experimental: as §1
# [3] = biological target: T3, soluble mouse GPNMB (recombinant …); assay: SPR Carterra, Ab amine-coupled
# Experimental: as §1
# [4] = biological target: T4, soluble mouse GPNMB-Fc polypeptide (Fc …); assay: FACS, Fab2 blocking moGPNMB-Fc binding to SVEC4-10 cells
# Experimental: (§2) Purified recombinant Fab2 fragments of select anti-GPNMB antibodies of the present disclosure were produced through transient transfection and purified. Briefly, 2 ug/mL soluble mouse or human GPNMB-Fc diluted in binding buffer was pre-complexed with increasing concentrations of anti-GPNMB Fab2 fragments in 96-well plates. Subsequently, 100,000 SVEC4-10 cells were added per well and incubated on ice for 30 minutes. Soluble moGPNMB-Fc or huGPNMB-Fc bound to cell surface was detected with fluorescent anti-human IgG1 secondary antibody and measured on FACSCanto. IC50 and EC50 values based on changes in MFI values were calculated for each antibody.
# [5] = biological target: T5, soluble human GPNMB-Fc polypeptide; assay: FACS, Fab2 enhancing huGPNMB-Fc binding to SVEC4-10 cells
# Experimental: as §2
Kd [1],koff [1],kon [1],Kd [2],koff [2],kon [2],Kd [3],koff [3],kon [3],IC50 [4],EC50 [5],Binder
0.107 µM,0.01 s⁻¹,97000 M⁻¹ s⁻¹,0.135 µM,0.0098 s⁻¹,76000 M⁻¹ s⁻¹,0.012 µM,0.0019 s⁻¹,180000 M⁻¹ s⁻¹,,,"anti-GPNMB antibody GPN-81 (antibody, V domains shown, humanized GPN-52) VH: QVQLQESGPGLVKPSETLSLTCTVSGISITTGNYRWSWIRQPPGKGLEWIGYIYYSGTITYNPSLKSRVTITRDTSKNQFSLELSSVTAADTAVYYCARDLTHWYFDVWGQGTLVTVSS VL: DIVMTQSPDSLAVSLGERATINCKSSESVDYYGIGFLNWYQQKPGQPPKLLIYAASTQGSGVPDRFSGSGSGTDFTLTISSLQAEDVAVYYCQQSKEVPPTFGGGTKVEIK"
,,,,,,,,,0.00156 µM,0.00905 µM,"recombinant Fab2 fragment of anti-GPNMB antibody GPN-61 (other, also called GPN-61 Fab2) VH: DVQLQESGPGLVKPSQTVFLTCTVTGISITTGNYRWSWIRQFPGNKLEWIGYIYYSGTITYNPSLTSRTTITRDTPKNQFFLEMSSLTAEDTATYFCARDLRHWYFDVWGTGTTVTVSS VL: not shown"
